B1: TPR t1 (parent)
chain: GACCAAUCUGCCCUCAGAGCUCGAGAACAUCUUCGGAUGCAGAGGAGGCAGGCUUCGGUGGCGCGAUAGCGCCAACGUCCUCAACCUCCAAUGCAUCCCACCACAUGAUGAUGCCUGAAGAGCCUUGGUUUUUUG

Variants of: B1
Experiment: polymerase ribozyme fitness, log enrichment relative to wild type (log ratio); higher = more active; in vitro selection for triplet polymerase activity
How it was run: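 Both subunits of a heterodimeric triplet polymerase ribozyme were given their own mutant library, built by PCR and transcribed. Each library was annealed with a biotinylated primer, the partner subunit and triplets, incubated frozen at −7 °C, and its extended constructs gel-excised, captured on streptavidin beads and amplified by RT-PCR, all in one round done in triplicate. Fitness is the logarithm of genotype enrichment relative to wild-type enrichment, with replicates averaged by inverse-variance weighting. That logarithm is base 2, and Illumina-sequenced genotypes needed ≥10 input reads and ≥1 read per output.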

Variant | polymerase ribozyme fitness (log ratio)
GACCAAUCUGCCCUCAGAGCUCGAGAACAUCUUCGUAUGCAGAGGAGGCAGGCUCCGGUGGCGCGCUAGCGCCAACGUCCUCAACCUCCAAUGCAUCCCACCACAUGAUGAUGCCUGAAGAGCCUUGGUUUUUUG | -3.51
GACCAAUCUGCCCUCAGAGCUCGAGAACAUCUUCGUAUGCAGAGGAGGCAGGCUUCGGUGGCACGAUAGCGCCAACGUCCUCAAACUCCAAUGCAUCCCACCACAUGAUGAUGCCUGAAGAGCCUUGGUUUUUUG | -3.57
GACCAAUCUGCCCUCAGAGCUCGAGAACAUCUUCGUAUGCAGAGGAGGCAGGCUUCGGUGACGCGAUAGCGCCAACGUCCUCAACCUCCAAUCCAUCCCACCACAUGAUGAUGCCUGAACAGCCUUGGUUUUUUG | -0.0777
GACCAAUCUGCCCUCAGAGCUCGAGAACAUCUUCGUAUGCAGAGGAGGCAGGCUUCGGUGGCGCGAUAUCGCCAACGUCCUCAACCUCCAAUGCAUCCCACCACAUGAUGAUGCCUGAAGAGCCUUGGUUUUUUG | -0.697
GACCAAUCUGCCCUCAGAGCUCGAGAACAUCUUCGUAUGCAGAGGAGGCAGGCUUCGGUGGCGCGAUAGCUCCAACGUCCUCAACCACCAAUGCAUCCCACCAAAUGAUGAUUCUUGAAGAGCCUUGGUAUUUUG | -7.12
GACCAAUCUGCCCUCAGAGCUCGAGAACAUCUUCGUAAGCAGAGGAGUCAGGCUUCGGUGUCACGAUAGCGCCAACGUCCUCAACCUCCAAUGCAUUCCACCACAUGAUGAUGCUUGAAGAGCCUUGGUUUUUUG | -5.64
GACCAAUCUGCCCUCAGAGCUCGAGAACAUCUUCGUAUGCAGAGGAGGCAGGCUUCGGUCGCGCGAUAGCGCCAACGUCCUCAACCUCCAAUGCAUCCCUCCACAUGAUGAUGCCUGAAGAGCCUUGGUUUUUUG | -2.77
GACCAAUCUGCCCUCAGAGCUCGAGAACAUCUUCGUAUGCAGAGGAGGCAGGCUUCGGAGGCGCGAUAGCGCCAACGUCCUCAACCUCCAAUCCAUCCCACCACAUGAUGAUGCCUGAACAGCCUUGGUUUUUUG | -0.759
GACCAAUCUGCCCUCAGAGCUCGAGAACAUCUUCGUAUGCAGAGGAGGCAGGCUUCGGUGGCCCGAUAGCGCCAAGGUCCUCAACCUCCAAUGCAUCCCACCACAUGAUGAUGCCUAAAGAGCCUUGGUUUUUUG | -5.18
GACCAAUCUGCCCUCAGAGCUCGAGAACAUCUUCGUAUGCAGAGGAGGCAGGCUUCGGUGGCACGAUAGCGCCAACGUCCUCAACCUCCAAUGCAUCCCACCACAUGAUGAUGCCUGAAGAGCCUUGGUUUUUUG | -1.69
GACCAAUCUGCCCUCAGAGCUCGAGAACAUCUUCGUAUGCAGAGGAGGCAGGCAUCGGUGGCGCGAUAGCGACAACGUCCUCAACCUCCAAUGCAUCCCACCACAUGAUGAUGCCUGAAGAGCCUUGGUUUUUUG | -0.869
GACCAAUCUGCCCUCAGAGCUCGAGAACAUCUUCGUAUGCAGAGGAGGCAGGCUUCGGUGUCGCGAUAGCGCCAACGUCCUCAACCUCCAAUGCAUCCCACCACAUGAUGAUGCCUGAAGAGCCUUGGUUUUUUG | -0.625
GACCAAUCUGCCCUCAGAGCUCGAGAACAUCUUCGUAUGCAGAGGAGGCAGGCUUCGGUGCCGCGAUAGCGCCAACGUCCUCAACCUCCAAUGCAUCCCACCACAUGAUGAUGCCUGAAGAGCCUUGGUUUUUUG | -2.58
GACCAAUCUGCCCUCAGAGCUCGAGAACAUCUUCGUAUGCAGAGGAGGCAGGCUUCGGUGGCGCGAUAGCGCCAACCUCCUCAACCUCCAUUGCAUCCCACCACAUGAUGAUGCCUGAAGAGCCUUGGUUUUUUG | -4.63
GACCAAUCUGCCCUCAGAGCUCGAGAACAUCUUCGUAUGCAGAGGAGGCAGGCUUCGGUGGCGCGAUAACGCCAACGUCCACAACCUCCAAUGCAUCCCACCACAUGAUGAUGCCUGAAGAGCCUUGGUUUUUUG | -3.96
GACCAAUCUGCCCUCAGAGCUCGAGAACAUCUUCGUAUGCAGAGGAGGCAGGCUUCGGUGGCGCGAUAGCACCAACGUCCUCAACCUCCAAUGCAUCCCACCACAUGAUGAUGCCUGAAGAGCCUUGGUUUUUUG | -1.86
GACCAAUCUGCCCUCAGAGCUCGAGAACAUCUUCGUAUGCAGAGGAGGCAGGCUUCGGUGGCGCGAUAUCGCCAACGUCCUCAACCUCCAAUGCACCCCAUCACAUGAUGAUGCCUGAAGAGCCUAGGUUUUUUG | -2.59
GACCAAUCUGCCCUCAGAGCUCGAGAACAUCUUCGUAUGCAGAGGAGGCAGGCUUCGGUGGCGCGAUAGCACCAACGUCCUCAACCUCCAAUGCAUCCCACCACAUGAUGAUGCCUGAAUAGCCUUGGUUUUUUG | -1.04
GACCAAUCUGCCCUCAGAGCUCGAGAACAUCUUCGUAUGCAGAGGAGGCAGGCUUCGGUGGCGCGAUAGCGCCAACAUCCUCAACCUCCAAUGCAUCCCACCACAUGAUGAUUCCUGAAGAGCCUUGGUUUUUUG | -3.33
GACCAAUCUGCCCUCAGAGCUCGAGAACAUCUUCGUAUGCAGAGGAGGCAGGCUUCGGUAGCGCGAUAGCGCCAACGUCCUCAACCUCCAAUGCAUCCCACCACAUGAUGAUGCCUGAAGAGCCUUGGUUUUUUG | -1.61
GACCAAUCUGCCCUCAGAGCUCGAGAACAUCUUCGUAUGCAGAGGAGGCAGGCUUCGGUGGCGCGAUAGCGCCAACGUCCUCAACCUCCAAUGCAUCCCACCACAUGAUCAUGCCUGAAGAGCCUUGGUUUUUUG | -4.93
